Test results taken from PMC5889556.
Blank lines part the entries; values can stand above or below the molecule they belong to.

What was measured:
FtsZ (Bacillus subtilis) = FtsZ (Bacillus subtilis) (UniProt P17865); conditions: cited from earlier work
[1] = biological target: ClpXP complex (B. subtilis) (UniProt P50866)

Molecule: UgtP (from UniProt P54166)
Kd (FtsZ (Bacillus subtilis)): 38 nM

in vitro ClpXP proteolysis assay with 5 mM ATP: percent of purified His-UgtP degraded after 45 min, by anti-His immunoblot [1]: 88% | in vitro ClpXP proteolysis assay without ATP: percent of purified His-UgtP degraded, by anti-His immunoblot [1]: 13%
B1: His-UgtP (enzyme)
chain: MNTNKRVLILTANYGNGHVQVAKTLYEQCVRLGFQHVTVSNLYQESNPIVSEVTQYLYLKSFSIGKQFYRLFYYGVDKIYNKRKFNIYFKMGNKRLGELVDEHQPDIIINTFPMIVVPEYRRRTGRVIPTFNVMTDFCLHKIWVHENVDKYYVATDYVKEKLLEIGTHPSNVKITGIPIRPQFEESMPVGPIYKKYNLSPNKKVLLIMAGAHGVLKNVKELCENLVKDDQVQVVVVCGKNTALKESLSALEAENGDKLKVLGYVERIDELFRITDCMITKPGGITLTEATAIGVPVILYKPVPGQEKENANFFEDRGAAIVVNRHEEILESVTSLLADEDTLHRMKKNIKDLHLANSSEVILEDILKESEMMTAKQKAKVLS
